This experiment addresses T1, recombinant mouse LRP6-His chimera (mouse, UniProt O88572 20-1370).
T1 construct: extracellular domain; also called ECD of mouse LRP6; not shown: His tag
T1 sequence (looked up): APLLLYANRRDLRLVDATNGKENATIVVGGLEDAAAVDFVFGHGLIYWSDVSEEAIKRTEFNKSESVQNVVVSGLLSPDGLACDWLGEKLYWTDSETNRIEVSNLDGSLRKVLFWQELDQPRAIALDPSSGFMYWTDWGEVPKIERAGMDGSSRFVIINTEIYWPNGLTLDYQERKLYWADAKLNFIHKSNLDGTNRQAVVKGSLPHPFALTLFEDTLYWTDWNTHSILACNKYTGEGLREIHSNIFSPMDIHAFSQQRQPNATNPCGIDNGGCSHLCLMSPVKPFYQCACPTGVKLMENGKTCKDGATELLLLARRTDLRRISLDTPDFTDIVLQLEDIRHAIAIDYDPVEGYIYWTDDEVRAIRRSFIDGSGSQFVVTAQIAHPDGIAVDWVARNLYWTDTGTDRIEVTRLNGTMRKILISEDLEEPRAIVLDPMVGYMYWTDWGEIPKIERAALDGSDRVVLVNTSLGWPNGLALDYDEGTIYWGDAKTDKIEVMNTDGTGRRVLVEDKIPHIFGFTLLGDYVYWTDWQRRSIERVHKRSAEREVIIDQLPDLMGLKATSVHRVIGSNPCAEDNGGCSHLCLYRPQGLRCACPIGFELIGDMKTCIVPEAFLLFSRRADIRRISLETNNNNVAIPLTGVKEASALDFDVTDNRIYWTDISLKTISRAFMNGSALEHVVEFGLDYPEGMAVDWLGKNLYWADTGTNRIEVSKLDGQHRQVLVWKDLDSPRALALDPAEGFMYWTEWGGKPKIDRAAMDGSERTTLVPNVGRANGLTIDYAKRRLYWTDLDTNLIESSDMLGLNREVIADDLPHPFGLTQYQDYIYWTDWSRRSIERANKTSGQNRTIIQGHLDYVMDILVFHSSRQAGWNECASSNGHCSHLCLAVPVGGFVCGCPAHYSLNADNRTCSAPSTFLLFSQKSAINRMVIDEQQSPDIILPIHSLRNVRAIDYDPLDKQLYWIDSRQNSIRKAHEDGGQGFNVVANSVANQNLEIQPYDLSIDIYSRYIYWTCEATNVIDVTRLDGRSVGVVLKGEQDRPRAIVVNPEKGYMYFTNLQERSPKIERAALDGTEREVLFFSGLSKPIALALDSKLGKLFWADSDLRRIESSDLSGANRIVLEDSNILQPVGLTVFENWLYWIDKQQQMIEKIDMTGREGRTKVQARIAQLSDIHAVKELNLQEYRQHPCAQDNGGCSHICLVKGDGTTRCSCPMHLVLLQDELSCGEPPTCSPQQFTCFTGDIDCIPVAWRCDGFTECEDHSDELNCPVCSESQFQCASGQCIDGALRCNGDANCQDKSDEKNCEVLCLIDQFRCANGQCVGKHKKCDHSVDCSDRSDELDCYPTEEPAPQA
In words: single-point ELISA, coated antigen, purified Fab or IgG1, anti-kappa-HRP. (In general: An ELISA detects its analyte on a solid surface through an enzyme-linked reagent.)

B1: LRP5-H5 (antibody, V domains shown)
VH: EVQLVESGGGLVQPGGSLRLSCAASGFNLSYSSIHWVRQAPGKGLEWVASISSSYGSTSYADSVKGRFTISADTSKNTAYLQMNSLRAEDTAVYYCARGYWAIDYWGQGTLVTVSS
VL: DIQMTQSPSSLSASVGDRVTITCRASQSVSSAVAWYQQKPGKAPKLLIYSASSLYSGVPSRFSGSRSGTDFTLTISSLQPEDFATYYCQQPVGHYGYPITFGQGTKVEIKR
notes: Fab-phage in the screen
On to B1, for which the binding result is on record as “binds”.

Source of the values: patent US20230183336A1 (MODMAB THERAPEUTICS, published 2023).
